Columns and labels:
[1] = target: T1, human CEACAM5 expressed on cancer cell lines (MKN-45, NCI-H441, SNU-16, SK-CO-1, LS174T) (human, UniProt P06731 35-685); assay: cell-based or functional assay
T1 sequence: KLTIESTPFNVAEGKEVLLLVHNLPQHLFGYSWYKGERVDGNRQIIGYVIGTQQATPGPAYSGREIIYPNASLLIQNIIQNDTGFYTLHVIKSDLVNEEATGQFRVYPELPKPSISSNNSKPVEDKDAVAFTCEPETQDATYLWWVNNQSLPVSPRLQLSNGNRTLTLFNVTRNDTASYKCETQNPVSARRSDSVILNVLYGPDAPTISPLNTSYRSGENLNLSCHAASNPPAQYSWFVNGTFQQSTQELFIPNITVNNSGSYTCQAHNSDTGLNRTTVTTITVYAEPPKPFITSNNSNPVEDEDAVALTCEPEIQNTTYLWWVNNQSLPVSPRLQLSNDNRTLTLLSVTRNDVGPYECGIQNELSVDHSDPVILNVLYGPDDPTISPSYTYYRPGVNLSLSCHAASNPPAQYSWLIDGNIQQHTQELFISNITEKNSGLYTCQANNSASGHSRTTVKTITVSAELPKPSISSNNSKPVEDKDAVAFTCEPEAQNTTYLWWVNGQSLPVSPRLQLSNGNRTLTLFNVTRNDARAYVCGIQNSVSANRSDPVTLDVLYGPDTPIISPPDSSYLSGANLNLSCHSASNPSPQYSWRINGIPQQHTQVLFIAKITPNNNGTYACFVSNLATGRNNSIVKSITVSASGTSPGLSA

[2] = target: T1, human CEACAM5 expressed on cancer cell …; assay: cell-based or functional assay; remark: listed apart in the source
[3] = target: T1, human CEACAM5 expressed on cancer cell …; assay: cell binding on MKN45 cells, average of several experiments

| EC50 [3] [nM] | Binder | fold higher potency than ADC SAR DM4 against SK-CO-1 cancer cells (cell viability) [1] [fold] | IC50 [M], cell viability (CellTiter-Glo, 6 days), LS174T [2] [M] | IC50 [M], cell viability (CellTiter-Glo, 6 days), MKN-45 [2] [M] | IC50 [M], cell viability (CellTiter-Glo, 6 days), SK-CO-1 [2] [M] | IC50 [M], cell viability (CellTiter-Glo, 6 days), SNU-16 [2] [M] |
| --- | --- | --- | --- | --- | --- | --- |
|  | ADC1 (mAb1-glucuronid-exatecan) (other, exatecan attached through the glucuronide linker of DL1 (maleimide) to cysteines of reduced interchain disulfides; DAR 7.9) heavy: EVQLQESGPGLVKPSQTLSLTCTVSDGSVSRGGYYLTWIRQHPGKGLEWIGYIYYSGSTYFNPSLRSRVTMSVDTSKNQFSLKLSSVTAADTAVYYCARGIAVAPFDYWGQGTLVTVSSASTKGPSVFPLAPSSKSTSGGTAALGCLVKDYFPEPVTVSWNSGALTSGVHTFPAVLQSSGLYSLSSVVTVPSSSLGTQTYICNVNHKPSNTKVDKRVEPKSCDKTHTCPPCPAPPVAGPSVFLFPPKPKDTLMISRTPEVTCVVVDVSHEDPEVKFNWYVDGVEVHNAKTKPREEQYNSTYRVVSVLTVLHQDWLNGKEYKCKVSNKALPSSIEKTISKAKGQPREPQVYTLPPSREEMTKNQVSLTCLVKGFYPSDIAVEWESNGQPENNYKTTPPVLDSDGSFFLYSKLTVDKSRWQQGNVFSCSVMHEALHNHYTQKSLSLSPG light: not shown | 2.9 | 3.8e-10 | 6.2e-10 | 8.5e-11 | 3.2e-10 |
| 10.4 | mAb1 (antibody, human IgG1, kappa, Labelled with pHrodo in the internalization assay; also called so8G4) heavy: EVQLQESGPGLVKPSQTLSLTCTVSDGSVSRGGYYLTWIRQHPGKGLEWIGYIYYSGSTYFNPSLRSRVTMSVDTSKNQFSLKLSSVTAADTAVYYCARGIAVAPFDYWGQGTLVTVSSASTKGPSVFPLAPSSKSTSGGTAALGCLVKDYFPEPVTVSWNSGALTSGVHTFPAVLQSSGLYSLSSVVTVPSSSLGTQTYICNVNHKPSNTKVDKRVEPKSCDKTHTCPPCPAPPVAGPSVFLFPPKPKDTLMISRTPEVTCVVVDVSHEDPEVKFNWYVDGVEVHNAKTKPREEQYNSTYRVVSVLTVLHQDWLNGKEYKCKVSNKALPSSIEKTISKAKGQPREPQVYTLPPSREEMTKNQVSLTCLVKGFYPSDIAVEWESNGQPENNYKTTPPVLDSDGSFFLYSKLTVDKSRWQQGNVFSCSVMHEALHNHYTQKSLSLSPG light: not shown |  |  |  |  |  |
|  | ADC2 (mAb1-AAN-exatecan) (other, exatecan attached through the legumain-cleavable Ala-Ala-Asn linker of DL2 (maleimide) to cysteines of reduced interchain disulfides; DAR 7.6) heavy: EVQLQESGPGLVKPSQTLSLTCTVSDGSVSRGGYYLTWIRQHPGKGLEWIGYIYYSGSTYFNPSLRSRVTMSVDTSKNQFSLKLSSVTAADTAVYYCARGIAVAPFDYWGQGTLVTVSSASTKGPSVFPLAPSSKSTSGGTAALGCLVKDYFPEPVTVSWNSGALTSGVHTFPAVLQSSGLYSLSSVVTVPSSSLGTQTYICNVNHKPSNTKVDKRVEPKSCDKTHTCPPCPAPPVAGPSVFLFPPKPKDTLMISRTPEVTCVVVDVSHEDPEVKFNWYVDGVEVHNAKTKPREEQYNSTYRVVSVLTVLHQDWLNGKEYKCKVSNKALPSSIEKTISKAKGQPREPQVYTLPPSREEMTKNQVSLTCLVKGFYPSDIAVEWESNGQPENNYKTTPPVLDSDGSFFLYSKLTVDKSRWQQGNVFSCSVMHEALHNHYTQKSLSLSPG light: not shown | 2.7 | 2.8e-10 | 4.7e-10 | 6.9e-11 | 2.8e-10 |
| 16 | hmn-14 (antibody, human IgG1, kappa, V domains shown, Known comparator antibody, human IgG; also called labetuzumab) VH: EVQLVESGGGVVQPGRSLRLSCSASGFDFTTYWMSWVRQAPGKGLEWIGEIHPDSSTINYAPSLKDRFTISRDNAKNTLFLQMDSLRPEDTGVYFCASLYFGFPWFAYWGQGTPVTVSS VL: DIQLTQSPSSLSASVGDRVTITCKASQDVGTSVAWYQQKPGKAPKLLIYWTSTRHTGVPSRFSGSGSGTDFTFTISSLQPEDIATYYCQQYSLYRSFGQGTKVEIKR |  |  |  |  |  |
